Data on one molecule can be found in paper PMC6648891.

A word on the Kd: it is a measure of binding affinity in units of concentration. Higher therefore signals weaker binding.

For this data set, the target named is T1, FOXC2 DBD (Homo sapiens, UniProt Q99958 60-198).
T1 sequence: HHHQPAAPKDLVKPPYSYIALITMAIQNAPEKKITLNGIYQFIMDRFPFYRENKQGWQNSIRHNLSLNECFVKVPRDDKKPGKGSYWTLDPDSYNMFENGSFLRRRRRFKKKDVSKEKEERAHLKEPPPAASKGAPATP
In words: EMSA. (In EMSA bound probe runs differently from free probe, usually more slowly.)

B1: 16 bp EMSA DNA (dsDNA)
DNA 1: CAAGGTAAACAAACCA
DNA 2: TGGTTTGTTTACCTTG
B1: the equilibrium dissociation constant (Kd) amounted to 26.4 µM. In other words, the double-digit micromolar range.
